The labels stand for the following.
B1: His‐BmGtsf1L (natural protein, Bombyx mori)
chain: MDDPFVSCPYNPIHRVPRSRLQRHIVKCEWINPTMIACPYNATHRYTQEDMKFHVLNCPSKTSIFPIEKPPKTVASITTPKIILQKEYLPETDPNHEIWDD
notes: BmGtsf1L, Bombyx mori; pET28a, thrombin site after the His6 tag; also called His6‐thrombin‐BmGtsf1L; recombinant BmGtsf1L; source: E. coli BL21 DE3 codon+, purified (HisTrap, gel filtration); not shown: His6, N-terminal, kept
B2: GST‐BmVreteno‐L (natural protein, Bombyx mori)
chain: MSNHSRPQRRREWDPMRDDFNEHTYDVQYADDNAGEQVQLDHTKLYIINIPRGLSEDGIRAAFSKHGKVLSARLSKNPNKRFAIVQFETASEAKLAMMKMNGSEPLNLKISIAHKTIRKTQHDNKDRNYSTSRNGHCSRDEASSISSKGWNMRNLDDVMNNDEIDEIDDMIHEDHDDNLDLELDMLTLKQLKIKEEQLMCKRRLLLRHAEKRQVAPHSSAGRSVLPDGRIVVRNNANETDSAEVEPSFAGAGSESLKTPGLERNASRQCVKCGAPADWYCSRCAITPYCSQTCQTRDWTERHKSVCHYLAPLKTAGGFEAEATSSKSVSNSTPMRSSHSPPTKQQRGEADETDNKAKNIQEPRQNYHRPSNSGPNKNIPGKNQDPRRPATSREAIEEETEERGARNPKPAEATKDKHHPMNPVTFQRRQLKSNPVVDAQPAPREQQQPAATRAPEASPTEQRESTRRTLVPDRCLIDSLSEGDVVLVSVELKASECCTKQGGYVCLSMHEKYESDYQKLCEDYVLDCEADSDEYKIITGDTFSYLSPEDGGWYRARALNTTMAALLDGSKVVYLRMNDKVKKLPAKYSGIPEFCCVLNADVEVGLNLKCSLLSKTPNGFKVTLENVETEANVGEGEITRWIPEVDYPPPVKNVPVQRSVEIPEVPRPEIKNKSRVILVDATDVQRVFVRPADTRSQKAFDNILQDVLLYGTTAEPLKEPPSKGQTVVSKYTDNLHYRALCKRTSVNKNKYLLEYIEYGNIEITQLNRLYPCPEHLSVTSLASLTSHVQLDTTVGELTPRALEYIETIKEEEMILTLSSGGDTAQSGAALVNLTLVKNNDNVNKRIEELCTPEWKKLELKGVDVIETERLMYGTALDYIELPAAPFDLQVLDEVGLDSGNISGCPTNSDYVRYVMTKLPARMREYCESEFGRQPYLPAAEELCIAQLPPSSEWHRAVVLEQILGPGGGTARVLFVDHGNVAEVPVSSLRKMLAEFVTDLPAVACQIVIEDFPKQATAEMLAKARRFMSGPDKARAAQLPVRGCDKQDVGIYAIRVPELLEAMTE
notes: BmVreteno Long isoform, Bombyx mori; pGEX-6p vector, 3C site between GST and BmVreteno; the purified protein was associated with nucleic acids; also called GST‐3C‐BmVreteno; full‐length BmVreteno‐L; source: E. coli BL21 DE3 codon+, purified (GSTrap, gel filtration); not shown: GST, N-terminal, kept

In the data set “GST‐BmVreteno‐L” the target is B2. The data set can be described thus: pull-down; GSH pull-down: 5 μM GST-BmVreteno (or fragment, variant) on Glutathione Sepharose 4B with 10 μM His-BmGtsf1L, 2 h 4°C, PBS with 0.1% Triton-X100; SDS-PAGE, Coomassie (Fig 5G also anti-His Western blot). The conditions noted are these: both partners purified. A general note: A western blot detects proteins with antibodies after separation by electrophoresis.

Data set [1] concerns the molecule itself. As to the kind of experiment: SEC; gel filtration of purified GST-BmVreteno-L and -S (Superdex 75 and 200 16/60 pg, 25 mM Na-Hepes, 300 mM NaCl, 10% glycerol, pH 7.4); protein associated with nucleic acids. For orientation: Size exclusion chromatography separates by hydrodynamic size, large species first.

On to B1, for which the binding result in the data set with GST‐BmVreteno‐L was “binds”. Consider B2, for which the binding result in data set [1] is given as “binds”.

The record behind these values is publication PMC10711660, “An extended Tudor domain within Vreteno interconnects Gtsf1L and Ago3 for piRNA biogenesis in Bombyx mori” (The EMBO Journal, 2023).
